According to patent US12415847B2, “ApoM-Fc fusion proteins for treating lung diseases” (Children's Medical Center Corporation, priority 2018, dated 2025):

Tests used:
S1P1 receptor [1] = target: T1, S1P1 receptor (Homo sapiens, UniProt P21453); assay: Nanobit split luciferase assay, Gi-alpha coupling; format: cell-based; details: transfected 293A cells; 1000 nM-0.3 nM S1P
T1 construct: expressed in transfected cells; host or cells: Human 293A cells, transient PEI transfection
Experimental: (§1) FIGS. 5A-5B. Nanobit analysis of Human ApoMFc-S1P, Mouse ApoMFc-S1P, or BSA-S1P (Positive Control). […] BSA-S1P is the well-established activator of the S1PR1 and it was tested whether Human ApoMFc-S1P, Mouse ApoMFc-S1P gave equivalent induction of receptor activation. Data are the means of triplicate wells with the baseline (pre-stimulation) signal subtracted from the final luciferase signal and graphs are expressed with standard deviation.
(§2) The S1P receptors are members of the G-protein coupled receptor (GPCR) superfamily. Receptor activation is characterized by immediate activation of a G-protein complex (alpha-beta-gamma) that activates multiple intracellular signaling pathways and then secondary activation of coupling to the protein beta-arrestin, which may cause receptor internalization and desensitization as well as activation of other intracellular signaling pathways. […]
(§3) There are two general forms of this assay. […] Upon activation of the GPCR, the G-Protein alpha-beta-gamma complex […] and Luciferase activity may be detected by measuring emitted light in the presence of luciferase substrate (luciferin). […] It is notable that G-Protein assay results in decreased relative fluorescence with increased receptor activation, while the Beta-arrestin coupling assay results in increased relative fluorescence with increased receptor activation. […]
Target sequence in this assay (P21453 whole entry): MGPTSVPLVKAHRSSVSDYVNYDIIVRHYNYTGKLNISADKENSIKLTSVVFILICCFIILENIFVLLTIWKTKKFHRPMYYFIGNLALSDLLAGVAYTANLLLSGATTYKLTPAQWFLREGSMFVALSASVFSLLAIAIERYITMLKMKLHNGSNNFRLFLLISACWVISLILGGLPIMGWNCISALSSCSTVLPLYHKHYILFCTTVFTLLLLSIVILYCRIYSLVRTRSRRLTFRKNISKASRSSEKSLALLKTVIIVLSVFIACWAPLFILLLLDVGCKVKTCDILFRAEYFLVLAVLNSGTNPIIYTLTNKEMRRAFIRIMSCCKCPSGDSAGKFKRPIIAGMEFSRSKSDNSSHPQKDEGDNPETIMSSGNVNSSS

HUVECs = assay: Trans-endothelial electrical resistance (TEER); format: cell-based, human; details: 4 μg/well, 250 nM S1P, 6 hour time point
Experimental: FIG. 4. Human and Mouse ApoM-Fc-S1P enhanced endothelial Barrier Protection. Human ApoMFc-S1P (4 μg/well, 250 nM S1P), Mouse ApoMFc-S1P (4 μg/well, 250 nM S1P), or BSA-S1P (250 nM S1P; Positive Control) were analyzed using transepithelial/transendothelial electrical resistance (TEER). The results of TEER analysis of HUVECs at the 6 hour time point are shown. BSA-S1P is the well-established activator of the S1PR1 and it was tested whether Human ApoMFc-S1P, Mouse ApoMFc-S1P gave equivalent induction of receptor activation. All results are normalized to individual well baselines (baseline=1), expressed as the mean of triplicate wells, and Standard Deviation (S.D.) is expressed as gray vertical bars over the course of the data set. […]
0.1 ml of Human Umbilical Vascular Endothelial Cells (HUVECS; 200,000 cells/ml in EGM-2 culture medium, Lonza) were seeded into a 96 well electrical conductance chamber (ECIS Cultureware; Applied Biophysics, Inc) pre-coated with 1% Fibronectin resuspended in Saline. After overnight incubation at 37° C./5% CO2, the 96-well plate was placed on the ECIS reader (Applied Biophysics; Ztheta 96-well array station) and baseline resistance was established which represents the quality of Endothelial junction strength or Endothelial barrier function. […]

S1P1 receptor [2] = target: T1, S1P1 receptor; assay: Nanobit split luciferase assay, beta-arrestin coupling; format: cell-based; details: transfected 293A cells; 1000 nM-0.3 nM S1P
Experimental: as §1, §2, §3
Target sequence in this assay (P21453 whole entry): as above
Target sequence in this assay (P49407 whole entry partner): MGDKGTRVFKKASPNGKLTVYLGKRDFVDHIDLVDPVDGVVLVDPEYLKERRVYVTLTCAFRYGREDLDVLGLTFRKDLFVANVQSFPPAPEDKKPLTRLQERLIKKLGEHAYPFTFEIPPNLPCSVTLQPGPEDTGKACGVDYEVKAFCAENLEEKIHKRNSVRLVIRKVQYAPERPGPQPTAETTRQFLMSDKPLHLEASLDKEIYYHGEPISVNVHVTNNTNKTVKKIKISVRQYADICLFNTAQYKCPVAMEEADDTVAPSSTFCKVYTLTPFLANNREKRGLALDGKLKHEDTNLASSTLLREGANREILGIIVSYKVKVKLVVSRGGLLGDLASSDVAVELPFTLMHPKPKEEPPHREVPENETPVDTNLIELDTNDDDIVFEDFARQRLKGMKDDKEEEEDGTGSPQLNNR

[3] = free ApoM not associated with HDL; Faber et al. 2006; cited from earlier work

B1: Mouse ApoMFc-S1P: Mouse ApoM-mouse IgG1Fc fusion (mApoM-Fc) loaded with S1P (protein)
chain: NQCPEHSQLTALGMDDTETPEPHLGLWYFIAGAAPTTEELATFDPVDNIVFNMAAGSAPRQLQLRATIRTKSGVCVPRKWTYRLTEGKGNMELRTEGRPDMKTDLFSSSCPGGIMLKETGQGYQRFLLYNRSPHPPEKCVEEFKSLTSCLDFKAFLVTPRNQEACPLSSKWISSASSAKTTPPSVYPLAPGSAAQTNSMVTLGCLVKGYFPEPVTVTWNSGSLSSGVHTFPAVLQSDLYTLSSSVTVPSSTWPSETVTCNVAHPASSTKVDKKIVPRDCGCKPCICTVPEVSSVFIFPPKPKDVLTITLTPKVTCVVVDISKDDPEVQFSWFVDDVEVHTAQTQPREEQFNSTFRSVSELPIMHQDWLNGKEFKCRVNSAAFPAPIEKTISKTKGRPKAPQVYTIPPPKEQMAKDKVSLTCMITDFFPEDITVEWQWNGQPAENYKNTQPIMDTDGSYFVYSKLNVQKSNWEAGNTFTCSVLHEGLHNHHTEKSLSHSPGK
activation of Gi-alpha coupling to the S1P1 receptor (S1P1 receptor [1]): equivalently activates
endothelial barrier protection (TEER) (HUVECs): enhance endothelial Barrier Protection
activation of beta-arrestin coupling to the S1P1 receptor (S1P1 receptor [2]): equivalently activates

B2: Free ApoM: free ApoM that is not associated with HDL; 26-kDa protein (protein, UniProt O95445 1-188, looked up)
Apolipoprotein M: MFHQIWAALLYFYGIILNSIYQCPEHSQLTTLGVDGKEFPEVHLGQWYFIAGAAPTKEELATFDPVDNIVFNMAAGSAPMQLHLRATIRMKDGLCVPRKWIYHLTEGSTDLRTEGRPDMKTELFSSSCPGGIMLNETGQGYQRFLLYNRSPHPPEKCVEEFKSLTSCLDSKAFLLTPRNQEACELSNN
half-life [3]: extremely short
